Laboratory results: patent publication US20220242936A1 (CHANGCHUN GENESCIENCE PHARMACEUTICAL, published 2022)

Key:
Aβ1-42 polypeptide [1] = target: T1, Aβ1-42 polypeptide (human); experiment: ELISA EC50 on Aβ42 monomer, 2 ml transient transfection; table note: '-' means no combination; expression 68.4 mg/L
T1 construct: Synthetic peptide; also called Aβ1-42 monomer; Aβ monomer

Aβ1-42 polypeptide [2] = target: T1, Aβ1-42 polypeptide; experiment: ELISA EC50 on Aβ42 monomer, 2 ml transient transfection; table note: '-' means no combination; expression 7.72 mg/L
Aβ1-42 polypeptide [3] = target: T1, Aβ1-42 polypeptide; experiment: ELISA EC50 on Aβ42 monomer, 2 ml transient transfection; table note: '-' means no combination; expression 6.14 mg/L

T1 sequence (peptide, as listed by the source): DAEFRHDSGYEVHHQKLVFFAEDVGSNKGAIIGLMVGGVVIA

B1: 066-4.26.14H1L5 (antibody, human IgG1, V domains shown)
VH: EVQLVESGGGLVKPGGSLRLSCAASGFTFRSYAMSWVRQAPGKGLEWVASISTTSNTYYPDSVKGRFTTSRDNAKNSLYLQMNSLRAEDTAVYYCGRGVITNQAWFAYWGQGTLVTVSS
VL: EIVLTQSPDFQSVTPKEKVTITCRASQSISNNLHWYQQKPDQSPKLLIKYASQSISGVPSRFSGSGSGTDFTLTINSLEAEDAATYYCQQSNSWPLTFGQGTKVEIKR
notes: Humanized full-length antibody; human IgG1 heavy constant and human kappa light constant (vectors pGS003-hIgG1CH, pGS003-hIgKCL)
binding result (Aβ1-42 polypeptide [1]): no binding

B2: 066-4.26.14H2L4 (antibody, human IgG1, kappa, V domains shown)
VH: EVQLVESGGGLVKPGGSLRLSCAASGFTFRSYAMSWVRQTPEKRLEWVASISTTSNTYYPDSVKGRFTTSRDNAKNSVYLQMSSLRAEDTAVYYCGRGVITNQAWFAYWGQGTTVTVSS
VL: EIVLTQSPGTLSLSPGERATLSCRASQSISNNLHWYQQKPGQAPRLLIKYASQSISGIPDRFSGSGSGTDFTLTISRLEPEDFAVYYCQQSNSWPLTFGGGTKVEIKR
notes: as for B1
binding result (Aβ1-42 polypeptide [2]): no binding

B3: 066-4.26.14H2L5 (antibody, human IgG1, kappa, V domains shown)
VH: EVQLVESGGGLVKPGGSLRLSCAASGFTFRSYAMSWVRQTPEKRLEWVASISTTSNTYYPDSVKGRFTTSRDNAKNSVYLQMSSLRAEDTAVYYCGRGVITNQAWFAYWGQGTTVTVSS
VL: EIVLTQSPDFQSVTPKEKVTITCRASQSISNNLHWYQQKPDQSPKLLIKYASQSISGVPSRFSGSGSGTDFTLTINSLEAEDAATYYCQQSNSWPLTFGQGTKVEIKR
notes: as for B1
binding result (Aβ1-42 polypeptide [3]): no binding
